The target in assay [1] is 8.3 T cell receptor on CD8+ T cells of 8.3 TCR transgenic NOD mice (mouse (NOD)). The assay can be described thus: cell-based or functional assay.
The target in assay [2] is T1, synTac 4-1BBL trimer (synTac 40+51; 4-1BBL synTac co-expressed with free 4-1BBL) (murine, UniProt P41273 50-254 (human entry), Interchain disulfide between linker Cys (GCGAS) and H-2Kd Cys84. Fc hinge disulfides join two synTac units. Two free 4-1BBL chains join each synTac-borne 4-1BBL non-covalently.).
T1 construct: also called Native trimer; trimeric syntac-41BBL
As to the kind of experiment: flow cytometry, Protein A microbeads coated with 4-1BB-Fc; detection antibody to the synTac heavy chain isotype. Background: A flow cytometer gives signals particle by particle.

The text below walks through data of patent US20170058015A1 (ALBERT EINSTEIN COLLEGE OF MEDICINE, published 2017).

Molecule “synTac IGRP-PD-L1 (light chain version) (from UniProt Q9Z186 206-214; P01902 22-305) (peptide-MHC)” came in with an IFNγ secretion by anti-CD3 stimulated CD8+ 8.3 T cells (suppression) in assay [1] of 100 fold.

B1: recombinant mouse 4-1BB-Fc fusion protein (Fc fusion, UniProt P20334 24-187, looked up)
chain: VQNSCDNCQPGTFCRKYNPVCKSCPPSTFSSIGGQPNCNICRVCAGYFRFKKFCSSTHNAECECIEGFHCLGPQCTRCEKDCRPGQELTKQGCKTCSLGTFNDQNGTGVCRPWTNCSLDGRSVLKTGTTEKDVVCGPPVVSFSPSTTISVTPEGGPGGHSLQVL
notes: From commercial sources; coated on Protein A microbeads; also called murine 4-1BB; murine receptor; not shown: Fc of the commercial fusion protein
In the case of B1, the binding result in assay [2] is “binds”.
